Measurements published in US20140087995A1 (published 2014).
Numbered stars: 1 amine (or outer) side, 2 acyl side, 3 side chain; on linkers, the order of the positions; unused ones are H or OH. Bridge positions count the residues as written; N and C are the ends. Side chains are listed from the residue outwards. Ends that are not written are not given here. * marks the point of attachment. C20 diacid = O=C(O)CCCCCCCCCCCCCCCCCCC(=O)*; γGlu = O=C(O)[C@H](CCC(=O)[*:2])N[*:1]; AEEA = NCCOCCOCC(=O)O

T1: human amylin receptor (amylin 3(a) receptor: human calcitonin receptor with RAMP-3) (human, UniProt P30988 25-474; O60896 24-148)
T1 construct: whole, on cells; also called hAmylin-R; hAmylinR
T1 sequence (looked up) 1: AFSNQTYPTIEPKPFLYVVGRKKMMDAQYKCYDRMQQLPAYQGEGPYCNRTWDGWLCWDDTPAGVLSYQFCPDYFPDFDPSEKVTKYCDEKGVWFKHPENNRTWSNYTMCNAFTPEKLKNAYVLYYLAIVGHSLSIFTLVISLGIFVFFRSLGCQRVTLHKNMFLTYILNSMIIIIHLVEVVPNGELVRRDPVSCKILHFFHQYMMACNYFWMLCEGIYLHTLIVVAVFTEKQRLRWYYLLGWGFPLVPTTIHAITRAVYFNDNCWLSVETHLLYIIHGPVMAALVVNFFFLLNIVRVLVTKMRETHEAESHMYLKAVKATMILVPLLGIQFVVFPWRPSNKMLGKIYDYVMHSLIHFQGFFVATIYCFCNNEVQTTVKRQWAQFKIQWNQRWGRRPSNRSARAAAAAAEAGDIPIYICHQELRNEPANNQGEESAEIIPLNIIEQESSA
T1 sequence (looked up) 2: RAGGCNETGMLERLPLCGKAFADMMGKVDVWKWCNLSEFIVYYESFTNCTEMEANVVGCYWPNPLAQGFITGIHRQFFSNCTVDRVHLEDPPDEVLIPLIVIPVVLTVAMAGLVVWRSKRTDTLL

B1: N^ε1-[2-[2-[2-[[2-[2-[2-[[(4S)-4-carboxy-4-(19-carboxynonadecanoylamino)butanoyl]amino]ethoxy]ethoxy]acetyl]amino]ethoxy]ethoxy]acetyl]-[Arg17,Pro21,Pro27,Pro34 … (peptide)
peptide: K([AEEA-AEEA-γGlu-C20 diacid])CNTATCATQRLANFLRHSSPNFGAIPSSTNVGPNTY-NH2
modifications: disulfide 2-7; N-terminus assumed
SMILES: CC[C@H](C)[C@H](NC(=O)[C@H](C)NC(=O)CNC(=O)[C@H](Cc1ccccc1)NC(=O)[C@H](CC(N)=O)NC(=O)[C@@H]1CCCN1C(=O)[C@H](CO)NC(=O)[C@H](CO)NC(=O)[C@H](Cc1c[nH]cn1)NC(=O)[C@H](CCCNC(=N)N)NC(=O)[C@H](CC(C)C)NC(=O)[C@H](Cc1ccccc1)NC(=O)[C@H](CC(N)=O)NC(=O)[C@H](C)NC(=O)[C@H](CC(C)C)NC(=O)[C@H](CCCNC(=N)N)NC(=O)[C@H](CCC(N)=O)NC(=O)[C@@H](NC(=O)[C@H](C)NC(=O)[C@@H]1CSSC[C@H](NC(=O)[C@@H](N)CCCCNC(=O)COCCOCCNC(=O)COCCOCCNC(=O)CC[C@H](NC(=O)CCCCCCCCCCCCCCCCCCC(=O)O)C(=O)O)C(=O)N[C@@H](CC(N)=O)C(=O)N[C@@H]([C@@H](C)O)C(=O)N[C@@H](C)C(=O)N[C@@H]([C@@H](C)O)C(=O)N1)[C@@H](C)O)C(=O)N1CCC[C@H]1C(=O)N[C@@H](CO)C(=O)N[C@@H](CO)C(=O)N[C@H](C(=O)N[C@@H](CC(N)=O)C(=O)N[C@H](C(=O)NCC(=O)N1CCC[C@H]1C(=O)N[C@@H](CC(N)=O)C(=O)N[C@H](C(=O)N[C@@H](Cc1ccc(O)cc1)C(N)=O)[C@@H](C)O)C(C)C)[C@@H](C)O
notes: also called 98; compound 98
B2: N^ε1-[2-[2-[2-[[(4S)-4-carboxy-4-(19-carboxynonadecanoylamino)butanoyl]amino]ethoxy]ethoxy]acetyl]-[Arg14,Arg17,Pro21,Pro27,Pro31]-h-amylin (peptide)
peptide: K([AEEA-γGlu-C20 diacid])CNTATCATQRLARFLRHSSPNFGAIPSSTPVGSNTY-NH2
modifications: disulfide 2-7; N-terminus assumed
SMILES: CC[C@H](C)[C@H](NC(=O)[C@H](C)NC(=O)CNC(=O)[C@H](Cc1ccccc1)NC(=O)[C@H](CC(N)=O)NC(=O)[C@@H]1CCCN1C(=O)[C@H](CO)NC(=O)[C@H](CO)NC(=O)[C@H](Cc1c[nH]cn1)NC(=O)[C@H](CCCNC(=N)N)NC(=O)[C@H](CC(C)C)NC(=O)[C@H](Cc1ccccc1)NC(=O)[C@H](CCCNC(=N)N)NC(=O)[C@H](C)NC(=O)[C@H](CC(C)C)NC(=O)[C@H](CCCNC(=N)N)NC(=O)[C@H](CCC(N)=O)NC(=O)[C@@H](NC(=O)[C@H](C)NC(=O)[C@@H]1CSSC[C@H](NC(=O)[C@@H](N)CCCCNC(=O)COCCOCCNC(=O)CC[C@H](NC(=O)CCCCCCCCCCCCCCCCCCC(=O)O)C(=O)O)C(=O)N[C@@H](CC(N)=O)C(=O)N[C@@H]([C@@H](C)O)C(=O)N[C@@H](C)C(=O)N[C@@H]([C@@H](C)O)C(=O)N1)[C@@H](C)O)C(=O)N1CCC[C@H]1C(=O)N[C@@H](CO)C(=O)N[C@@H](CO)C(=O)N[C@H](C(=O)N1CCC[C@H]1C(=O)N[C@H](C(=O)NCC(=O)N[C@@H](CO)C(=O)N[C@@H](CC(N)=O)C(=O)N[C@H](C(=O)N[C@@H](Cc1ccc(O)cc1)C(N)=O)[C@@H](C)O)C(C)C)[C@@H](C)O
notes: also called 64; compound 64
B3: N^ε1-[2-[2-[2-[[(4S)-4-carboxy-4-(19-carboxynonadecanoylamino)butanoyl]amino]ethoxy]ethoxy]acetyl]-[Ala14,Arg17,Pro21,Pro27,Pro31]-h-amylin (peptide)
peptide: K([AEEA-γGlu-C20 diacid])CNTATCATQRLAAFLRHSSPNFGAIPSSTPVGSNTY-NH2
modifications: disulfide 2-7; N-terminus assumed
SMILES: CC[C@H](C)[C@H](NC(=O)[C@H](C)NC(=O)CNC(=O)[C@H](Cc1ccccc1)NC(=O)[C@H](CC(N)=O)NC(=O)[C@@H]1CCCN1C(=O)[C@H](CO)NC(=O)[C@H](CO)NC(=O)[C@H](Cc1c[nH]cn1)NC(=O)[C@H](CCCNC(=N)N)NC(=O)[C@H](CC(C)C)NC(=O)[C@H](Cc1ccccc1)NC(=O)[C@H](C)NC(=O)[C@H](C)NC(=O)[C@H](CC(C)C)NC(=O)[C@H](CCCNC(=N)N)NC(=O)[C@H](CCC(N)=O)NC(=O)[C@@H](NC(=O)[C@H](C)NC(=O)[C@@H]1CSSC[C@H](NC(=O)[C@@H](N)CCCCNC(=O)COCCOCCNC(=O)CC[C@H](NC(=O)CCCCCCCCCCCCCCCCCCC(=O)O)C(=O)O)C(=O)N[C@@H](CC(N)=O)C(=O)N[C@@H]([C@@H](C)O)C(=O)N[C@@H](C)C(=O)N[C@@H]([C@@H](C)O)C(=O)N1)[C@@H](C)O)C(=O)N1CCC[C@H]1C(=O)N[C@@H](CO)C(=O)N[C@@H](CO)C(=O)N[C@H](C(=O)N1CCC[C@H]1C(=O)N[C@H](C(=O)NCC(=O)N[C@@H](CO)C(=O)N[C@@H](CC(N)=O)C(=O)N[C@H](C(=O)N[C@@H](Cc1ccc(O)cc1)C(N)=O)[C@@H](C)O)C(C)C)[C@@H](C)O
notes: also called 72; compound 72
B4: N^ε1-[2-[2-[2-[[(4S)-4-carboxy-4-(19-carboxynonadecanoylamino)butanoyl]amino]ethoxy]ethoxy]acetyl]-[Arg17,Pro21,Pro27,Arg34]-h-amylin (peptide)
peptide: K([AEEA-γGlu-C20 diacid])CNTATCATQRLANFLRHSSPNFGAIPSSTNVGRNTY-NH2
modifications: disulfide 2-7; N-terminus assumed
SMILES: CC[C@H](C)[C@H](NC(=O)[C@H](C)NC(=O)CNC(=O)[C@H](Cc1ccccc1)NC(=O)[C@H](CC(N)=O)NC(=O)[C@@H]1CCCN1C(=O)[C@H](CO)NC(=O)[C@H](CO)NC(=O)[C@H](Cc1c[nH]cn1)NC(=O)[C@H](CCCNC(=N)N)NC(=O)[C@H](CC(C)C)NC(=O)[C@H](Cc1ccccc1)NC(=O)[C@H](CC(N)=O)NC(=O)[C@H](C)NC(=O)[C@H](CC(C)C)NC(=O)[C@H](CCCNC(=N)N)NC(=O)[C@H](CCC(N)=O)NC(=O)[C@@H](NC(=O)[C@H](C)NC(=O)[C@@H]1CSSC[C@H](NC(=O)[C@@H](N)CCCCNC(=O)COCCOCCNC(=O)CC[C@H](NC(=O)CCCCCCCCCCCCCCCCCCC(=O)O)C(=O)O)C(=O)N[C@@H](CC(N)=O)C(=O)N[C@@H]([C@@H](C)O)C(=O)N[C@@H](C)C(=O)N[C@@H]([C@@H](C)O)C(=O)N1)[C@@H](C)O)C(=O)N1CCC[C@H]1C(=O)N[C@@H](CO)C(=O)N[C@@H](CO)C(=O)N[C@H](C(=O)N[C@@H](CC(N)=O)C(=O)N[C@H](C(=O)NCC(=O)N[C@@H](CCCNC(=N)N)C(=O)N[C@@H](CC(N)=O)C(=O)N[C@H](C(=O)N[C@@H](Cc1ccc(O)cc1)C(N)=O)[C@@H](C)O)C(C)C)[C@@H](C)O
notes: also called 78; compound 78
B5: N^ε1-[2-[2-[2-[[(4S)-4-carboxy-4-(19-carboxynonadecanoylamino)butanoyl]amino]ethoxy]ethoxy]acetyl]-[Arg14,Arg17,Pro21,Pro27]-h-amylin (peptide)
peptide: K([AEEA-γGlu-C20 diacid])CNTATCATQRLARFLRHSSPNFGAIPSSTNVGSNTY-NH2
modifications: disulfide 2-7; N-terminus assumed
SMILES: CC[C@H](C)[C@H](NC(=O)[C@H](C)NC(=O)CNC(=O)[C@H](Cc1ccccc1)NC(=O)[C@H](CC(N)=O)NC(=O)[C@@H]1CCCN1C(=O)[C@H](CO)NC(=O)[C@H](CO)NC(=O)[C@H](Cc1c[nH]cn1)NC(=O)[C@H](CCCNC(=N)N)NC(=O)[C@H](CC(C)C)NC(=O)[C@H](Cc1ccccc1)NC(=O)[C@H](CCCNC(=N)N)NC(=O)[C@H](C)NC(=O)[C@H](CC(C)C)NC(=O)[C@H](CCCNC(=N)N)NC(=O)[C@H](CCC(N)=O)NC(=O)[C@@H](NC(=O)[C@H](C)NC(=O)[C@@H]1CSSC[C@H](NC(=O)[C@@H](N)CCCCNC(=O)COCCOCCNC(=O)CC[C@H](NC(=O)CCCCCCCCCCCCCCCCCCC(=O)O)C(=O)O)C(=O)N[C@@H](CC(N)=O)C(=O)N[C@@H]([C@@H](C)O)C(=O)N[C@@H](C)C(=O)N[C@@H]([C@@H](C)O)C(=O)N1)[C@@H](C)O)C(=O)N1CCC[C@H]1C(=O)N[C@@H](CO)C(=O)N[C@@H](CO)C(=O)N[C@H](C(=O)N[C@@H](CC(N)=O)C(=O)N[C@H](C(=O)NCC(=O)N[C@@H](CO)C(=O)N[C@@H](CC(N)=O)C(=O)N[C@H](C(=O)N[C@@H](Cc1ccc(O)cc1)C(N)=O)[C@@H](C)O)C(C)C)[C@@H](C)O
notes: also called 82; compound 82

Each binder was assayed against T1, human amylin receptor (amylin 3(a) …) (assay: SPA displacement of 125I-rat amylin, hAmylin 3(a) receptor membranes).
Outline: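 Cell membranes were prepared by homogenisation in Na-HEPES/EDTA buffer, pH 7.4, and stored at −80° C. They were then coupled to SPA beads at 35 ng/μL final and exposed to compounds in assay buffer containing CaCl2, MgCl₂, OA and Tween20. After 120 min at 25° C, plates were counted and IC₅₀ derived.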

| Binder | IC50 [pM] |
| --- | --- |
| B1 | 91 |
| B2 | 444 |
| B3 | 172 |
| B4 | 602 |
| B5 | 636 |
